From a protein production outcome set (Wang et al. 2014)

Assay: label from the status in PepcDB records

Sequence | protein production
MIRNSGIHHEKLSQLLQSGHSLWVLYLDIAKFHEVEFRQGYRACAQILDLVLTEMKHTLHNYMHLFHTILLDYQGGDDFLFYFAPNENTPWSIAKLIPEFVPTLESRINHRIQRLVNETITLHSGLVECKPQPGRSVDYLLYGALKEAFLLNKSEPDPLYFSHREEVNRLLEEPQTYLSSAFQPILDVVSGEFFGFEALTRLKPPSSFAGIADLFPFAEKIGQLYPVETICRRTAILNSSQILRPKELLFLNVEPQVLTDPEFSSGQTRRLLETQGLTPSDVVLEITERSAIANYGTFREALEHYRKQGYLIALDDVGAGYSSLQSIAELHPDFLKIDRCLIQGIHLDPIKWALFETFVTFSRRIGCRILAEGVETQEEMRTVVQLGADYVQGYFIAKPSFTRPELSDPVTQIVQSQQRLSFNSEKTVQHLLEPLPLVTPQTTVNAVQNYFEEHAKIWLIGVADKGELLGVVQRDNLYSALATPFGVSLYSQRPVTSLMNNKQLLIEDTTPIEVASSLAMARPDAHLYDGIVVVQQQKPIGMIRVASLIKAMSDTQLQIAQGASPLTGLPGNSAIEQEIKRRLNSGNAFGMIYADLNQFKAFNDTYGFQYGDSIIKLLGKILMQDSLKADDLAFVGHVGGDDFIILTTQNVTKTLGETILLSFQEQLSAMQGAQDLSLALAGLIIYPHTAWTPATLSERIAAVKREAKKAHCNYFLLRE | failed
MMTTNTEYAPYRLELVNITKRYGGLVANDHISLKVAAGEIHAVLGENGAGKSTLMKIIYGAVKADEGEIVWNGRSVTVDSPAAARRLGIGMVYQHFSLFETLTVVENIALGLEEKFDLAHLAQRVVEVSEKYGLPIDPQRMVHSLSVGERQRVEIVRCLLQNPSLLILDEPTSVLTPQAVQVLFQTLRRLASEGVSILYISHKLNEIQSLCDTATILRGGQVTGTAIPKQETTASLAKMMIGRDLPAYQQHAYEGVQQPIFQVKQLSIPAQDMFGTSLKEINLSVNTGEILGIAGISGNGQAELLTALSGETTSLKESFWLDGQAIGHLHAGQRRKLGFGFVPEERLGRGAVPAMSLTENTLLTAFRMGMTRWGLVNYAKASAFAQACISKFGVKASGSDAAARSLSGGNLQKFIVGREIMQQPKVMVVAQPTWGVDVGASAFIRQTLIDLSRQGVAIVVISEELEELFEISDRIAVLAAGQLSPPQPVNETNAEQIGLLMSGLQRDSQPQEDVIRVSI | failed
MVKKNVGLRFLSILILMALLIGNVQSFNVAAAEGVIVNGTQFKDTSGNVIHAHGGGMLKHGDYYYWYGEYRDDSNLFLGVSCYRSKDLVNWEYRGEVLSRNSAPELNHCNIERPKVMYNASTGEFVMWMHWENGINYGQARAAVAYSKTPDGKFTYIRSFRPMQDTGVMDHGLPGYMSRDCNVFVDTDGKGYFISAANENMDLHLYELTPDYKNIASLKAKLFVGQQREAPCLIKRNGYYYLITSGCTGWNPNQAKYAYSKDLASGWSQLYNLGNSTTYRSQPTFIIPVQGSSGTSYLYMGDRWAGAWGGKVNDSQYVWLPLNFISDTTLELPYYDSVKIDASSGIISEYIPDTTRYKLVNKNSGKVLDVLDGSVDNAAQIVQWTDNGSLSQQWYLVDVGGGYKKIVNVKSGRALDVKDESKEDGGVLIQYTSNGGYNQHWKFTDIGDGYYKISSRHCGKLIDVRKWSTEDGGIIQQWSDAGGTNQHWKLVLVSSPEPSPSPSPQVVKGDVNGDLKVNSTDFSMLRRYLLKTIDNFPTENGKQAADLNGDGRINSSDLTMLKRYLLMEVDL | failed
MYTENTGKHHRNGLPVWLLPLLVVISFWGVSQNIMVVDASSSVTVLPGNGGTLPLVNQLVIKQNDTALQGITNNAGDRGSLTPKNGAQRVLIHKVKDSDTITSTYGTVGTFHGQEVTAKVTISHIKVHDDSHKAPSGMKQTDGAFQIGPGFSSDTTMSNVAQFNVSYEFYYADTHAAVNIQNAFITLSSLDGPVAGTSTGFEYTAYLGAGKIYTVENSIVKQIANPLGGGQLVMAGQTARDASWPYTSSTAATFGVSGTKLEFIYGTTRVNSGNSWLQPVYNVSTITLGTPAIATPTLSATQSATDKQNRTLTYDLQQKVNVLDQDLMTKYKDWSENITIPANAKYTKGEVVNDAGQALPSTAYQVSYDEKTHQVKWHLTDAGIKSLPFKGETYHFKAQVQFSDDVDDQTKVTATGQTAIDKQTKTSNTVTNTIDNQATITVHHYMTDSTDKVAPDETVKVGYGKAYDVTKQVKTITGYKRNATLDEHTRGTASKTTKEAVMYYDPLPYNIHVNYLLTDGQKLDELDVTGLYGDTYTTEATDFEDLYTVDTDRLPTNAQGTVTEKPTTVNYYYQPTTGQWVDVGNQSSVLVRQDTKHNVRSVSQIYANDSGFTVKYNQDAAQVAIAASDTNGTQDNSLVFDYNSKYTFELSKNETVTFKVDDQGQVTATRVLGAEQTVTTFDKSGQLKTVTTVTNANGTKSQQTNTVDGLKSMVTGEQYDLGLLNGLKVTAQKEINPSQAATTESKTTTDTSQSGSNQSTSTTATDQTETNESTAGSSTNATNASSSVDASSANSQGDTEATSQSGTSASADSKTDSSVASSTSQTTDGKTDGETTNTGDTTTGTTTDSGLGFKSPFTEDQNTSSALGSAQTSSSLNSDTSAAVQALIAEPNSTPVVLGEDASFEEGVPVNDPVFSNDEGVSPNNNPSSAATPLAQATNTRARLTQNGKLLYEGTLKADQGEQNLYVSPDTTVEVDGGDDGDGFYLDTYDGDKGMAYTLGSGYAWAAENNDVTAAPASSATTSSESAASESNTNSSDSSRTASSAVDHSTSSASTSDASQSSHSTSSGESSHPESSSGSSTTSDSADADKQAAARSSQTQSNSVNGSSQAVSSSTVTSQSSVPTKANTKQASSTPTTKANRATVAAATSSTAPRQSRATTASASVPSVTSASAVAASRDKQQSAFKKQHPILNQILPKTNSAVATWLVWLGVGLLLLTVAITMVIKKRGRD | failed
QTPVYLDTSKPIEERVKDALSRMTLEEKVKMTHAQSKFSSPGVPRLGIPEVWATDGPHGIRPEVLWDEWDQAGWTNDSCIAYPALTCLSATWNPEMSYLYGKSIGEEARYRKKDILLGPGVNIYRTPLNGRNFEYMGEDPYLSSMMVVPYIKGVQENGVAACVKHYALNNQEFNRHTTNVHLSDRALYEIYLPAFKAAVQEGGAWAIMGAYNLYSFSEDTDSGKLYKTQHACHNKRLLQDILRKEWGFDGVVVSDWGGVHDTFQAISNGLDMEFGSWTNGLSAGTRNAYDNYYLAHPYLKLIQDGTVGTKELDEKVSNILRLIFRTSMNPH | failed
KAPLDEIADDSFWSDETLVKYYVNDLYSEISVDGLQLQENRSDNSVSAQRDKYRASWFKFNYDMVSASDPQDDDVWEDYYVKVRKCNRFFERIGTSTIEESEKSRLTGEVHFLRAMFYFEMVKRYGGVILLDKVLTMEDNWEIPRSSEKECYDFILEDLKKATEMLPASYGSREKGRATKGAAYALKSRVELYDKRYEDVIKSCAEVYKLGYELVDGTTPEKYRSIWWTTNKDNKEIIFDVQYKSPDVYNNMMVCNMVTYINDKYGDRGWGGLGPTQELIDAFEMADGTPATQYSQAPADQVFDINTCGIYEGREPRFYANIVFHGSQIFFNADKGAVTVDRYLMDTPDKGDGSLTGYNVWKWIDYDNYNYPYAGAGSPDFSTNWIILRYAEIYLNDAEARLETGDVEGARKAVNMIRQRVGLPDLTESDPEKLRELIRKERRIEFAFEEQRFYDVRRWKIGPETQTTLHGVRFVSPTEFKVTKTDIRTWNDRLYLTPVPHDEIVRSSVLKQNLGY | not failed
RNRRREEAARHYLECVLDGLTTGVVVFDEKGRLKTFNKAAEQILGMPLAPLWGSSRHGWHGVSAQQSLLAEVFAAIGAAAGTDKPVQVEYAAPDDAKILLGKATVLPEDNGNGVVMVIDDIT | failed
MPKKGSDPVWCVVMFDLPVKTKTQRKQATAFRQNLLDLGFCMAQLSVYVQYLPLAAKLSNLVKLIKEKLPPGGDVRILSVSDIQWSKMIRFSSSAEVSGEEKPDQLAIFLEHHHHHH | not failed
IPLKSIEVPFEGELLPGYAIISEDKAQDTLIVVGGGDTSREDLFYMLGYSGWEHDYNVLMVDLPGQGKNPNQGLHFEVDARAAISAILDWYQAPTEKIAIAGFSGGGYFTAQAVEKDKRIKAWIASTPIYDVAEVFRISFSTALKAPKTILKWGSKLVTSVNKVAEVNLNKYAWQFGQVDFITSVNEVLEQAQIVDYNKIDVPSLFLVGAGEDSELMRQSQVLYDNFKQRGIDVTLRKFSSESGADAHCQVNNFRLMHYQVFEWLNHIFKKKD | failed
MLKGFTRSSISPQLCSLYFKGLVGDDSLAGFGVAICGHRDDILFQLNAPIHGSDITVLEAELMALKRGLIEAAGFKSSFTIFVEGSSIRYVSELARATIVSELSISVDPPSSSLNGIEKLKLEDVIVWNVVNPYASTAKFGKSENVASMWKVPTHDRTFRRMHQSNLQFTFDFLGCWIGVAIRFATHAEQNGSKEVALIEQ | failed
MAAQAAAAAQAAAAAQAAAAQAAQAEAAESWYLALLGFAEHFRTSSPPKIRLCVHCLQAVFPFKPPQRIEARTHLQLGSVLYHHTKNSEQARSHLEKAWLISQQIPQFEDVKFEAASLLSELYCQENSVDAAKPLLRKAIQISQQTPYWHCRLLFQLAQLHTLEKDLVSACDLLGVGAEYARVVGSEYTRALFLLSKGMLLLMERKLQEVHPLLTLCGQIVENWQGNPIQKESLRVFFLVLQVTHYLDAGQVKSVKPCLKQLQQCIQTISTLHDDEILPSNPADLFHWLPKEHMCVLVYLVTVMHSMQAGYLEKAQKYTDKALMRLEKLKMLDCSPILSSFQVILLEHIIMCRLVTGHKATALQEISQVCQLCQQSPRLFSNHAAQLHTLLGLYCVSVNCMDNAEAQFTTALRLTNHQELWAFIVTNLASVYIREGNRHQELYSLLERINPDHSFPVSSHCLRAAAFYVRGLFSFFQGRYNEAKRFLRETLKMSNAEDLNRLTACSLVLLGHIFYVLGNHRESNNMVVPAMQLASKIPDMSVQLWSSALLRDLNKACGNAMDAHEAAQMHQNFSQQLLQDHIEACSLPEHNLITWTDGPPPVQFQAQNGPNTSLASLL | failed
MIIRPIIKNDDQAVAQLIRQSLRAYDLDKPDTAYSDPHLDHLTSYYEKIEKSGFFVIEERDEIIGCGGFGPLKNLIAEMQKVYIAERFRGKGLATDLVKMIEVEARKIGYRQLYLETASTLSRATAVYKHMGYCALSQPIANDQGHTAMDIWMIKDL | failed
MLTYFHPDQSLHHPRTYFSRGRMRMPQEVPERAARLVAAAFAMGFPVREPDDFGIAPIAAVHDTHYLRFLETVHREWKAMPEDWGDEAMSNIFVREPNALRGVLAQAARHLADGSCPVGEHTWRAAYWSAQSALAAAAAVRDGAPAAYALCRPPGHHARVDAAGGFCYLNNAAIAAQALRARHARVAVLDTDMHHGQGIQEIFYARRDVLYVSIHGDPTNFYPAVAGFDDERGAGEGLGYNVNLPMPHGSSEAAFFERVDDALRELRRFAPDALVLSLGFDVYRDDPQSQVAVTTDGFGRLGHLIGALRLPTVIVQEGGYHIESLEANARSFFGGFGALRG | not failed
MNNVFGLDIGTRNVVGTVGYQTDDKEFVVTAQYVREHETRAMLDGQIHDIGRVAKTIKEVKDELEKQTGQPLEEVCIAAAGRVLKTVTTHVEYEYAQESVVTGEDVHTLDLLGIEKAQEALKEVNDTSYKFYCVGYSTVKFFLNDEVFISLEGHKANKIGEDIIVTFLPEDVVDGLYAAVGQAGLSVANMTLEPIAAINVAIPENYRMLNIALVDVGAGTSDISITRDGSIIAYGMIPHAGDELTEVIVQHFLVDFNMAESIKLQSTTSDTVTYKDIMSIEHTIPAQDVWDVAAPVVDNIAQEVSAKIRELNGDKTVSACFVVGGGGKIHGFTEKLAEDLDLPEERVALRGEEVLGDVTFEQEDIKKDPLLVTPIGICLNYYDQRNNFIMVRFNGERIKLYDNNRLTIVDAALQAGFPNDELFPKRGTPINFTVNGVARLVRGEAGEGAVVTMNGKPASINTPLEPNSEIIIEPSTAGEAAVYKISQLDEYNHSVITFIINGRRVSCPRFVQVNGELEPEDYSIRENDVIETRNYYTVRQIAQFMDLVIDTDQMIFVNNEEAGLDTLVYENFSVEWKTDEYGVARIDNNTYNDTQESDTDEASVLAEQDANSTESDNTVARTSEQMMNQVLDELHDDFAKEAEASAVPENELPENELPKNDIQEEIHEEDSSKNTVTVIVNGEPVELSGKDTYIFVDIFTHISFDLQAGKGRAIATVINGRDARFSEELHEGDKIELYWKEN | failed
